Patent US20190134143A1

Biological target: PDZ1/2 domain
Experiment: SPR, Biacore 3000; PDZ1/2 amine-coupled to the chip, peptide as analyte, 1:1 binding model

Sequence of PDZ1/2 domain (P78352 65-246): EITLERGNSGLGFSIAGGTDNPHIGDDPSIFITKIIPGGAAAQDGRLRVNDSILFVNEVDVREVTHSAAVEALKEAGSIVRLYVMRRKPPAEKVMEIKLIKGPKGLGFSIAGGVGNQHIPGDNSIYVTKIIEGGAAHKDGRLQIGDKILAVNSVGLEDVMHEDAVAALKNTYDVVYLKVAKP

YGRKKRRQRRRKLSSIESDV (modifications not checked) [control chimeric peptide NA-1]
Kd: 75.3 nM
